Drawing on article PMC5311487, this text covers Kd for 14 molecules.

First the molecules themselves.
T1: MEC-8 RRM1 (Caenorhabditis elegans, UniProt G5ECJ4 28-123, C54A;C102A)
T1 sequence: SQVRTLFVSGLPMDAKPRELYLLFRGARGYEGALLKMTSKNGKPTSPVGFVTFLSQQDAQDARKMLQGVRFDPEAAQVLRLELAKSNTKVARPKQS

The first series deals with T1, MEC-8 RRM1. The series is described as follows: ITC. In general terms: In ITC the heat of successive injections is recorded.
On to ACCACAUUUUUUUUACCACA (ssRNA) [10-nt spacer (G2C/G16C)], for which binding was put at a Kd of 1560 ± 10 nM. In turn, AGCACAUUUUAGCACA (ssRNA) [6-nt spacer] yielded a Kd of 330 ± 10 nM. On to AUCACA (ssRNA) [6-mer (G2U)], for which the Kd was determined as 20400 ± 800 nM. Still for that read-out and setting: the value for AGCACAUUUUUUUUUUUUAGCACA (ssRNA) [14-nt spacer] was 110 ± 70 nM; that for AGCACAUUUUUUUUAGCACA (ssRNA) [10-nt spacer] was 150 ± 40 nM. On the same count and under the same terms, the same measure for AGCACAUUUU (ssRNA) [6-mer + 4U]: 1750 ± 30 nM. Still for that read-out and setting: the same measure for AGCACAUUUUUUUUAUCACA (ssRNA) [10-nt spacer (WT/G16U)]: 260 ± 80 nM. In turn, AAUCCAUUGCACUCCGGAUUU (structured_RNA) [U1A stem-loop] displayed a Kd of 240 ± 20 nM. AGCACAUUUUUUUUAGCAUA (ssRNA) [10-nt spacer (WT/C19U)] yielded a Kd of 450 ± 30 nM. As to AGCACAUUAGCACA (ssRNA) [4-nt spacer], the Kd was found to be 380 ± 90 nM. On the same count and under the same terms, the same measure for AGCACAUUUUUUUUUUAGCACA (ssRNA) [12-nt spacer]: 80 ± 20 nM; for AGCACAUUUUUUAGCACA (ssRNA) [8-nt spacer]: 180 ± 40 nM; for AUCACAUUUUUUUUAUCACA (ssRNA) [10-nt spacer (G2U/G16U)]: 1290 ± 40 nM.

For another series, the target named is T1, MEC-8 RRM1. The series can be described thus: ITC. This is another data set of the same source.
Regarding AACACAUUUUUUUUAACACA (ssRNA) [10-nt spacer (G2A/G16A)], the Kd is 900 ± 100 nM.

The Kd is the constant that tells how readily two partners part at equilibrium. A lower Kd goes with higher affinity.
